Measurements reported in patent US20200048328A1 (Bristol-Myers Squibb, published 2020).

Legend:
rhesus serum albumin [1] = molecular target: T1, rhesus serum albumin (rhesus, UniProt Q28522 17-600); test: SPR, albumin immobilized, acetate pH 5.5
T1 construct: also called RhSA; Rh-SA

human serum albumin [2] = molecular target: T2, human serum albumin (human, UniProt P02768 25-609); test: SPR, albumin immobilized, acetate pH 5.5
T2 construct: immobilized on chips or coated on plates elsewhere; also called HSA; HuSA

mouse serum albumin [3] = molecular target: T3, mouse serum albumin (mouse, UniProt P07724 25-608); test: SPR, albumin immobilized, acetate pH 5.5
T3 construct: also called MSA; MuSA

rhesus serum albumin [4] = molecular target: T1, rhesus serum albumin; test: SPR, albumin immobilized
Method: (§1) To determine the kinetics of binding to human, rhesus, and mouse serum albumin, as well as whether binding was retained at both physiological and endosomal pHs, the respective serum albumins were immobilized on a Biacore CMS chip to a surface density of ˜1200 RU using standard NHS/EDC coupling. […] Kinetic measurements were carried out using a 3 min association and 6-10 min dissociation phase. Kinetic traces of reference-subtracted sensorgrams were fit to a 1:1 binding model using the Biaevaluation software.

human serum albumin [5] = molecular target: T2, human serum albumin; test: SPR, albumin immobilized
Method: as §1

mouse serum albumin [6] = molecular target: T3, mouse serum albumin; test: SPR, albumin immobilized
Method: as §1

human serum albumin [7] = molecular target: T2, human serum albumin; test: direct binding ELISA on coated HSA, mono-Adnectin (column HSA EC50 (nM))
rhesus serum albumin [8] = molecular target: T1, rhesus serum albumin; test: SPR, albumin immobilized, acetate pH 7.4
human serum albumin [9] = molecular target: T2, human serum albumin; test: SPR, albumin immobilized, acetate pH 7.4
mouse serum albumin [10] = molecular target: T3, mouse serum albumin; test: SPR, albumin immobilized, acetate pH 7.4
rhesus serum albumin [11] = molecular target: T1, rhesus serum albumin; test: SPR, albumin immobilized, acetate pH 5.5; remark: listed apart in the source
human serum albumin [12] = molecular target: T2, human serum albumin; test: SPR, albumin immobilized, acetate pH 5.5; remark: listed apart in the source
mouse serum albumin [13] = molecular target: T3, mouse serum albumin; test: SPR, albumin immobilized, acetate pH 5.5; remark: listed apart in the source
human serum albumin [14] = molecular target: T2, human serum albumin; test: SPR, albumin immobilized, HBSP pH 7.4
mouse serum albumin [15] = molecular target: T3, mouse serum albumin; test: SPR, albumin immobilized, HBSP pH 7.4
rhesus serum albumin [16] = molecular target: T1, rhesus serum albumin; test: direct binding ELISA, albumin coated
Method: (§2) Cross-species albumin binding was determined using the ELISA method described above.

human serum albumin [17] = molecular target: T2, human serum albumin; test: direct binding ELISA, albumin coated
Method: as §2

mouse serum albumin [18] = molecular target: T3, mouse serum albumin; test: direct binding ELISA, albumin coated
Method: as §2

rhesus serum albumin [19] = molecular target: T1, rhesus serum albumin; test: SPR, albumin immobilized, HBSP pH 7.4
human serum albumin [20] = molecular target: T2, human serum albumin; test: SPR, albumin immobilized, HBSP pH 7.4; remark: listed apart in the source
mouse serum albumin [21] = molecular target: T3, mouse serum albumin; test: SPR, albumin immobilized, HBSP pH 7.4; remark: listed apart in the source
rhesus serum albumin [22] = molecular target: T1, rhesus serum albumin; test: SPR, albumin immobilized, Adnectin 250 nM
human serum albumin [23] = molecular target: T2, human serum albumin; test: SPR, albumin immobilized, Adnectin 250 nM
rat serum albumin [24] = molecular target: T4, rat serum albumin (rat, UniProt P02770 25-608); test: SPR, albumin immobilized, Adnectin 250 nM
T4 construct: also called Rat SA; RSA

mouse serum albumin [25] = molecular target: T3, mouse serum albumin; test: SPR, albumin immobilized, Adnectin 250 nM
rhesus serum albumin [26] = molecular target: T1, rhesus serum albumin; test: SPR, albumin immobilized; remark: listed apart in the source
Method: as §1
(§3) In addition, binding to albumin was carried out under various pH conditions ranging from pH 5.5 to pH 7.4.

human serum albumin [27] = molecular target: T2, human serum albumin; test: SPR, albumin immobilized; remark: listed apart in the source
Method: as §1, §3

rat serum albumin [28] = molecular target: T4, rat serum albumin; test: SPR, albumin immobilized;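 further: biacore CM5 surface plasmon resonance with serum albumin coupled to the chip, 3 min association then 6-10 min dissociation, rates from a 1:1 model fit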
Method: as §1, §3

cynomolgus serum albumin = molecular target: T5, cynomolgus serum albumin (cynomolgus, UniProt A2V9Z4 25-608); test: SPR, albumin immobilized;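 further: biacore CM5 surface plasmon resonance with serum albumin coupled to the chip, 3 min association then 6-10 min dissociation, rates from a 1:1 model fit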
T5 construct: also called cynoSA; CySA
Method: as §1, §3

mouse serum albumin [29] = molecular target: T3, mouse serum albumin; test: SPR, albumin immobilized; remark: listed apart in the source
Method: as §1, §3

T5 sequence (A2V9Z4 25-608 limits assumed): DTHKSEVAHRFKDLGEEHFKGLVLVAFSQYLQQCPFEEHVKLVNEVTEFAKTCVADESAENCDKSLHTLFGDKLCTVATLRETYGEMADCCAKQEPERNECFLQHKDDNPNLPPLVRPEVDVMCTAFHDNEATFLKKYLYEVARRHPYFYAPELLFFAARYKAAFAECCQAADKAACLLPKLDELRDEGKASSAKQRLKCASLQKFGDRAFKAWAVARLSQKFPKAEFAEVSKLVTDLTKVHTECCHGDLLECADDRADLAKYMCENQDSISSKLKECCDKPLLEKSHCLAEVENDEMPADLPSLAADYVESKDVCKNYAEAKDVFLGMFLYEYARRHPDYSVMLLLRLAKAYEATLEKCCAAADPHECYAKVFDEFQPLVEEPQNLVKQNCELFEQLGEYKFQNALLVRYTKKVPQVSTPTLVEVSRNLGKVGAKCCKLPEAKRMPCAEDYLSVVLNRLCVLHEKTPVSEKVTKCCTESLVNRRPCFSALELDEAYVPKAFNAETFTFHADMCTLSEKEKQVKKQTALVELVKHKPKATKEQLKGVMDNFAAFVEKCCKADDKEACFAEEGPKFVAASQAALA
T1 sequence (Q28522 17-600 limits assumed): as the sequence (A2V9Z4 25-608 limits assumed) above
T4 sequence (P02770 25-608 limits assumed): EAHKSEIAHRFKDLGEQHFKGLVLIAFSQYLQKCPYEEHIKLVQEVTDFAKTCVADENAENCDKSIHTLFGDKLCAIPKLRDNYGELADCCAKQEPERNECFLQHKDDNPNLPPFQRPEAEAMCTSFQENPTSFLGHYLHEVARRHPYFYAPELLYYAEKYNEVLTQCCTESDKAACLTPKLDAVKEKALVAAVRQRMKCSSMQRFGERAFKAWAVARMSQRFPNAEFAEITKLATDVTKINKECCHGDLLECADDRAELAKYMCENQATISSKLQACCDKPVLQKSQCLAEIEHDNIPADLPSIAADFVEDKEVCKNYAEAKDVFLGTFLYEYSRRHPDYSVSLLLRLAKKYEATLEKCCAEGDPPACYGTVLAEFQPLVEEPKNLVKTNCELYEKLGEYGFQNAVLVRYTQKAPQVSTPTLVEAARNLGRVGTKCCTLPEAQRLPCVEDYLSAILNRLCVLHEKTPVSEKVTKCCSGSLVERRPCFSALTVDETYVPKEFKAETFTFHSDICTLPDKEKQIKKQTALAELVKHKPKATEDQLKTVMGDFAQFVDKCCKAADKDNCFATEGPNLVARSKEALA
T3 sequence (P07724 25-608 limits assumed): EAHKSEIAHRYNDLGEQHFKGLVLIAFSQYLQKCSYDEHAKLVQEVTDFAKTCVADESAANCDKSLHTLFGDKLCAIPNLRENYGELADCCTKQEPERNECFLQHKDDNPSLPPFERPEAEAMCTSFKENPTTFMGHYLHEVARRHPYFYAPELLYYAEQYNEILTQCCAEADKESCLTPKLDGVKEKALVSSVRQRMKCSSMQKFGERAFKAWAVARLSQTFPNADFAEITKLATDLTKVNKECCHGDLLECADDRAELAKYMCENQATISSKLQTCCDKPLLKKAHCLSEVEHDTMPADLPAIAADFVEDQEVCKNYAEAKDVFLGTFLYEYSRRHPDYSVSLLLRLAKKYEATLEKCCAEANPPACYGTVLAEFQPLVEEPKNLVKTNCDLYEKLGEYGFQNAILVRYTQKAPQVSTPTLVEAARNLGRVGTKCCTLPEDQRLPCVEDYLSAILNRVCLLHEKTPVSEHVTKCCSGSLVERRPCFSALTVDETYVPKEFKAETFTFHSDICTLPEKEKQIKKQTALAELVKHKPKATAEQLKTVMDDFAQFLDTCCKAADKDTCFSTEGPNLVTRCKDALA

B1: PKE2 Adnectin 2629_E06 (designed binder)
chain: MGVSDVPRDLEVVAATPTSLLISWDAPAVTVRYYRITYGREVQKYSDLGPLYIYQEFTVPGSKSTATISGLKPGVDYTITVYAVTGSGESPASSKPISINYRTEIDKPSQHHHHHH
notes: 10Fn3 domain with modified CD loop; the entry includes the His6 tail; also called ADX_2629_E06
Kd (rhesus serum albumin [1]): 12 nM | koff (rhesus serum albumin [1]): 0.000584 s⁻¹ | kon (rhesus serum albumin [1]): 48500 M⁻¹ s⁻¹ | Kd (human serum albumin [2]): 4.64 nM | koff (human serum albumin [2]): 0.000326 s⁻¹ | kon (human serum albumin [2]): 70400 M⁻¹ s⁻¹ | Kd (mouse serum albumin [3]): 14.9 nM | koff (mouse serum albumin [3]): 0.00125 s⁻¹ | kon (mouse serum albumin [3]): 84000 M⁻¹ s⁻¹ | Kd (rhesus serum albumin [4]): 14.5 nM | koff (rhesus serum albumin [4]): 0.000283 s⁻¹ | kon (rhesus serum albumin [4]): 19500 M⁻¹ s⁻¹ | Kd (human serum albumin [5]): 12.3 nM | koff (human serum albumin [5]): 0.000213 s⁻¹ | kon (human serum albumin [5]): 17400 M⁻¹ s⁻¹ | Kd (mouse serum albumin [6]): 3.6 nM | koff (mouse serum albumin [6]): 0.000242 s⁻¹ | kon (mouse serum albumin [6]): 68400 M⁻¹ s⁻¹ | EC50 (human serum albumin [7]): 20 nM | Kd (rhesus serum albumin [8]): 11.8 nM | koff (rhesus serum albumin [8]): 0.000328 s⁻¹ | kon (rhesus serum albumin [8]): 27900 M⁻¹ s⁻¹ | Kd (human serum albumin [9]): 9.74 nM | koff (human serum albumin [9]): 0.000272 s⁻¹ | kon (human serum albumin [9]): 28000 M⁻¹ s⁻¹ | Kd (mouse serum albumin [10]): 3.48 nM | koff (mouse serum albumin [10]): 0.000268 s⁻¹ | kon (mouse serum albumin [10]): 76800 M⁻¹ s⁻¹ | Kd (rhesus serum albumin [11]): 11.2 nM | koff (rhesus serum albumin [11]): 0.000503 s⁻¹ | kon (rhesus serum albumin [11]): 44900 M⁻¹ s⁻¹ | Kd (human serum albumin [12]): 4.1 nM | koff (human serum albumin [12]): 0.000287 s⁻¹ | kon (human serum albumin [12]): 70700 M⁻¹ s⁻¹ | Kd (mouse serum albumin [13]): 14.6 nM | koff (mouse serum albumin [13]): 0.00113 s⁻¹ | kon (mouse serum albumin [13]): 77000 M⁻¹ s⁻¹ | Kd (human serum albumin [14]): 10.7 nM | koff (human serum albumin [14]): 0.000192 s⁻¹ | kon (human serum albumin [14]): 17900 M⁻¹ s⁻¹ | Kd (mouse serum albumin [15]): 3.3 nM | koff (mouse serum albumin [15]): 0.000262 s⁻¹ | kon (mouse serum albumin [15]): 79600 M⁻¹ s⁻¹ | EC50 (rhesus serum albumin [16]): 10.5 nM | EC50 (human serum albumin [17]): 14.5 nM | EC50 (mouse serum albumin [18]): 2.8 nM | Kd (rhesus serum albumin [19]): 12.7 nM | koff (rhesus serum albumin [19]): 0.000276 s⁻¹ | kon (rhesus serum albumin [19]): 21800 M⁻¹ s⁻¹ | Kd (human serum albumin [20]): 10.6 nM | koff (human serum albumin [20]): 0.000219 s⁻¹ | kon (human serum albumin [20]): 20700 M⁻¹ s⁻¹ | Kd (mouse serum albumin [21]): 3.43 nM | koff (mouse serum albumin [21]): 0.000272 s⁻¹ | kon (mouse serum albumin [21]): 79100 M⁻¹ s⁻¹ | koff (rhesus serum albumin [22]): 0.000219 s⁻¹ | koff (human serum albumin [23]): 0.000169 s⁻¹ | koff (rat serum albumin [24]): 0.000767 s⁻¹ | koff (mouse serum albumin [25]): 0.000401 s⁻¹ | Kd (rhesus serum albumin [26]): 3.4 nM | koff (rhesus serum albumin [26]): 0.00024 s⁻¹ | kon (rhesus serum albumin [26]): 73900 M⁻¹ s⁻¹ | Kd (human serum albumin [27]): 3.2 nM | koff (human serum albumin [27]): 0.000185 s⁻¹ | kon (human serum albumin [27]): 61000 M⁻¹ s⁻¹ | Kd (rat serum albumin [28]): 12.8 nM | koff (rat serum albumin [28]): 0.00126 s⁻¹ | kon (rat serum albumin [28]): 99700 M⁻¹ s⁻¹ | Kd (cynomolgus serum albumin): 3.2 nM | koff (cynomolgus serum albumin): 0.000229 s⁻¹ | kon (cynomolgus serum albumin): 73700 M⁻¹ s⁻¹ | Kd (mouse serum albumin [29]): 2.4 nM | koff (mouse serum albumin [29]): 0.000531 s⁻¹ | kon (mouse serum albumin [29]): 219000 M⁻¹ s⁻¹
